B3: HMunc18c (natural protein, mouse, UniProt Q60770 1-592, looked up)
chain: MAPPVSERGLKSVVWRKIKTAVFDDCRKEGEWKIMLLDEFTTKLLSSCCKMTDLLEEGITVIENIYKNREPVRQMKALYFISPTPKSVDCFLRDFGSKSEKKYKAAYIYFTDFCPDSLFNKIKASCSKSIRRCKEINISFIPQESQVYTLDVPDAFYYCYSPDPSNASRKEVVMEAMAEQIVTVCATLDENPGVRYKSKPLDNASKLAQLVEKKLEDYYKIDEKGLIKGKTQSQLLIIDRGFDPVSTVLHELTFQAMAYDLLPIENDTYKYKTDGKEKEAVLEEDDDLWVRVRHRHIAVVLEEIPKLMKEISSTKKATEGKTSLSALTQLMKKMPHFRKQISKQVVHLNLAEDCMNKFKLNIEKLCKTEQDLALGTDAEGQRVKDSMLVLLPVLLNKNHDNCDKIRAVLLYIFGINGTTEENLDRLIHNVKIEDDSDMIRNWSHLGVPIVPPSQQAKPLRKDRSAEETFQLSRWTPFIKDIMEDAIDNRLDSKEWPYCSRCPAVWNGSGAVSARQKPRTNYLELDRKNGSRLIIFVIGGITYSEMRCAYEVSQAHKSCEVIIGSTHILTPRKLLDDIKMLNKSKDKVSFKDE
notes: Munc18c (Munc18-3), mouse; also called Munc18c with an N-terminal His6-tag; source: E. coli, purified as described previously [39]; not shown: His6, N-terminal, kept

How the values were obtained:
Details in all cases: both partners purified
[1] = target: T1, Sx4_(1-275)-T4L-His (rat | phage T4 (from the name T4 …, UniProt Q08850 1-275; P00720 1-164, C141S); assay: BLI; C-terminally His-tagged Sx4 constructs loaded on Ni-NTA biosensors; de-tagged Munc18c 10/25–400 nM in solution; 25 mM Tris-Cl pH 7.5, 150 mM NaCl, 10 mM imidazole, 0.1% TX-100, 10% glycerol, 2 mM βME; BLItz; 1:1 fit
T1 construct: T4 lysozyme (T4L), amino acids 1-164, synthetic gene (GeneArt); Sx4 ligated between NdeI and HindIII, T4L between HindIII and XhoI of pET20b; also called Sx4 cytoplasmic domain with C-terminal T4-lysozyme fusion and His6; source: E. coli, purified; not shown: His6, C-terminal, kept

[2] = target: B3; assay: fluorescence polarisation; fluorescence anisotropy kinetics, both in solution: Alexa488-labeled Sx4 (50 nM) with HMunc18c at 100–2500 nM; 25°C; 25 mM HEPES pH 8.0, 200 mM NaCl, 1 mM TCEP, 2% glycerol; global 1:1 fit (Dynafit 4.0)
[3] = target: T2, Alexa488-labeled Sx4_(1-275)-T4L-His (native C141) (rat | phage T4 (from the name T4 …, UniProt Q08850 1-275)); P00720 1-164, Alexa Fluor 488 C5 maleimide on cysteine (native C141 rather than C141S)); assay: as above
T2 construct: T4 lysozyme (T4L), amino acids 1-164, synthetic gene (GeneArt); Degree of labeling greater than 90%; not shown: His6, C-terminal, kept

[4] = target: T1, Sx4_(1-275)-T4L-His; assay: ITC; Sx4-T4L-His construct (200–250 μM) titrated into HMunc18c (20–40 μM) in the cell; 298 K; 25 mM HEPES pH 8.0, 200 mM NaCl, 10% glycerol, 2 mM β-ME; single site model

B1: Munc18c (de-tagged) (natural protein, mouse, UniProt Q60770 1-592, looked up)
chain: MAPPVSERGLKSVVWRKIKTAVFDDCRKEGEWKIMLLDEFTTKLLSSCCKMTDLLEEGITVIENIYKNREPVRQMKALYFISPTPKSVDCFLRDFGSKSEKKYKAAYIYFTDFCPDSLFNKIKASCSKSIRRCKEINISFIPQESQVYTLDVPDAFYYCYSPDPSNASRKEVVMEAMAEQIVTVCATLDENPGVRYKSKPLDNASKLAQLVEKKLEDYYKIDEKGLIKGKTQSQLLIIDRGFDPVSTVLHELTFQAMAYDLLPIENDTYKYKTDGKEKEAVLEEDDDLWVRVRHRHIAVVLEEIPKLMKEISSTKKATEGKTSLSALTQLMKKMPHFRKQISKQVVHLNLAEDCMNKFKLNIEKLCKTEQDLALGTDAEGQRVKDSMLVLLPVLLNKNHDNCDKIRAVLLYIFGINGTTEENLDRLIHNVKIEDDSDMIRNWSHLGVPIVPPSQQAKPLRKDRSAEETFQLSRWTPFIKDIMEDAIDNRLDSKEWPYCSRCPAVWNGSGAVSARQKPRTNYLELDRKNGSRLIIFVIGGITYSEMRCAYEVSQAHKSCEVIIGSTHILTPRKLLDDIKMLNKSKDKVSFKDE
notes: Munc18c (Munc18-3), mouse; also called detagged Munc18c; HTMunc18c after TEV cleavage; source: E. coli, purified (IMAC, TEV cleavage, reverse IMAC, SEC); not shown: His6, N-terminal, cleaved
Kd [1]: 20 nM
koff [1]: 0.0078 s⁻¹
kon [1]: 430000 M⁻¹ s⁻¹

B2: Alexa488-labeled Sx4_(1-275)-His (native C141) (domain or fragment, rat, UniProt Q08850 1-275, looked up)
chain: MRDRTHELRQGDNISDDEDEVRVALVVHSGAARLSSPDDEFFQKVQTIRQTMAKLESKVRELEKQQVTILATPLPEESMKQGLQNLREEIKQLGREVRAQLKAIEPQKEEADENYNSVNTRMKKTQHGVLSQQFVELINKCNSMQSEYREKNVERIRRQLKITNAGMVSDEELEQMLDSGQSEVFVSNILKDTQVTRQALNEISARHSEIQQLERSIRELHEIFTFLATEVEMQGEMINRIEKNILSSADYVERGQEHVKIALENQKKARKKKVM
modifications: Alexa Fluor 488 C5 maleimide on cysteine (native C141 rather than C141S)
notes: Degree of labeling greater than 90%; not shown: His6, C-terminal, kept
Kd [2]: 502 nM
koff [2]: 0.000653 s⁻¹
kon [2]: 1300 M⁻¹ s⁻¹

B3
Kd [3]: 148 nM
koff [3]: 7.5e-05 s⁻¹
kon [3]: 502 M⁻¹ s⁻¹
Kd [4]: 100 nM
